B1: D11 TCRL antibody (murine parental monoclonal antibody) (antibody, mouse IgG1, kappa, V domains shown)
VH: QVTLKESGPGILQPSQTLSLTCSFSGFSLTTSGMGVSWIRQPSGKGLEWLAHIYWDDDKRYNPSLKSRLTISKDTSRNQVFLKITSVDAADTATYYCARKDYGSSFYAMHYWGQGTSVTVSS
VL: DIQMTQSPSSLSASLGGKVTITCKASQDIHNYIAWYQHKPVKGPRLLIHYTSTLQPGTPSRFSGSGSGRDYSFSISNLEPEDIATYYCLQYDNLWTFGGGTKLEIKR
notes: Mouse IgG1 isotype, recombinant from Expi293 cells; The antibody was biotinylated for flow cytometry; also called mouse parental D11
B2: hD11-5 TCRL antibody (humanized D11) (antibody, human IgG1, kappa, V domains shown)
VH: QITLKESGPTLVKPTQTLTLTCTFSGFSLSTSGMGVSWIRQPPGKALEWLAHIYWDDDKRYNPSLKSRLTITKDTSKNQVVLTMTNMDPVDTATYYCARKDYGSSFYAMHYWGQGTLVTVSS
VL: DIQMTQSPSSLSASVGDRVTITCKASQDIHNYIAWYQQKPGKAPKLLIHYTSTLQPGVPSRFSGSGSGTDFTFTISSLQPEDIATYYCLQYDNLWTFGQGTKVEIKR
notes: The antibody was biotinylated for flow cytometry; also called dH11-5

Tests used:
[1] = target: T1, Single-chain HLA-A2 (scHLA-A2)/TyrD 369-377 peptide complex; assay: SPR (ProteOn), IgG captured by immobilized anti-mouse antibody, scHLA-A2/TyrD complex as analyte at 16-250 nM, apparent affinity
T1 construct: Used as the soluble analyte in SPR; not shown: flexible linker

[2] = target: T1, Single-chain HLA-A2 (scHLA-A2)/TyrD …; assay: SPR (ProteOn), IgG captured by immobilized anti-mouse antibody, scHLA-A2/TyrD 369-377 as analyte (250-16 nM), Langmuir kinetic fit, column KD
Description: (§1) Briefly, six channels of ProteOn GLM sensor chip (BioRad laboratories) were activated with 50 μl of a mixture of 0.04 M N-ethyl-N′-(3-dimethylaminopropyl) carbodiimide (EDC) and 0.01 M sulfo-N-hydroxysuccinimide (Sulfo-NHS) at a flow rate of 30 μl/min. The anti-mouse or anti-human polyclonal antibodies (Jackson ImmunoResearch) were diluted in 10 mM sodium acetate buffer pH 4.5 to a final concentration of 25 μg/ml and 150 μl were injected followed by an injection of 150 μl of 1 M ethanolamine-HCl pH 8.5. The IgG TCRL antibodies were injected in the vertical orientation with a flow rate of 30 μl/min. […] Running buffer (PBST) was injected simultaneously in the sixth channel for double referencing to correct for loss of the captured antibodies from the chip sensor surface during the experiment. All binding sensorgrams were collected, processed and analyzed using the integrated ProteOn Manager (Bio-Rad Laboratories, Hercules, USA) software. Binding curves were fitted using the Langmuir model describing 1:1 binding stoichiometry, or with the Langmuir and mass transfer limitation model.

[3] = target: T1, Single-chain HLA-A2 (scHLA-A2)/TyrD …; assay: SPR (ProteOn), IgG captured by immobilized anti-human antibody, scHLA-A2/TyrD complex as analyte at 16-250 nM, apparent affinity
Description: as §1

[4] = target: T1, Single-chain HLA-A2 (scHLA-A2)/TyrD …; assay: SPR (ProteOn), IgG captured by immobilized anti-human antibody, scHLA-A2/TyrD 369-377 as analyte (250-16 nM), Langmuir kinetic fit, column KD
Description: as §1

Binder | Kd [1] [nM] | Kd [2] [nM] | Kd [3] [nM] | Kd [4] [nM]
B1 | 4.6 | 3.98 | – | –
B2 | – | – | 3.9 | 4.61

From US20200207858A1 (ADICET BIO, published 2020)
